Drawing on article PMC5935755, this text covers KM of ClpXP-mediated proteolysis (Michaelis-Menten analysis, loss of GFP fluorescence; 0.3 µM ClpX6, 0.9 µM ClpP14, 30 °C) for five substances.

This experiment has as its target ClpXP (ClpX ΔN-ter hexamer with ClpP tetradecamer) (UniProt P0A6H1).
Consider “GFP-UCHL5 (UCH domain, residues 1-240, ssrA-tagged) (from UniProt Q9Y5K5 1-240)”, for which the KM of ClpXP-mediated proteolysis (Michaelis-Menten analysis, loss of GFP fluorescence; 0.3 µM ClpX6, 0.9 µM ClpP14, 30 °C) was 1.85 µM.

Turning to GFP-UCHL3 (ssrA-tagged), the KM of ClpXP-mediated proteolysis (Michaelis-Menten analysis, loss of GFP fluorescence; 0.3 µM ClpX6, 0.9 µM ClpP14, 30 °C) was determined as 2.59 µM.

For GFP-UCHL1_(I93M) (ssrA-tagged), the KM of ClpXP-mediated proteolysis (Michaelis-Menten analysis, loss of GFP fluorescence; 0.3 µM ClpX6, 0.9 µM ClpP14, 30 °C) was 4.47 µM.

For GFP-UCHL1 (ssrA-tagged), the KM of ClpXP-mediated proteolysis (Michaelis-Menten analysis, loss of GFP fluorescence; 0.3 µM ClpX6, 0.9 µM ClpP14, 30 °C) amounted to 3.67 µM.

For “GFP-BAP1 (UCH domain, residues 1-238, ssrA-tagged) (from UniProt Q92560 1-238)”, the KM of ClpXP-mediated proteolysis (Michaelis-Menten analysis, loss of GFP fluorescence; 0.3 µM ClpX6, 0.9 µM ClpP14, 30 °C) worked out at 0.64 µM.
